These results are taken from the FLAb antibody collection (doi:10.7554/elife.23156).

B1: scFv; the commonest letter at each place (parent)
chain 1: EVKLDETGGGLVQPGRPMKLSCVASGFTFSDYWMNWVRQSPEKGLEWVAQIRNKPYNYETYYSDSVKGRFTISRDDSKSSVYLQMNNLRVEDMGIYYCTGSYYGMDYWGQGTSVTVS
chain 2: DVVMTQTPLSLPVSLGDQASISCRSSQSLVHSNGNTYLRWYLQKPGQSPKVLIYKVSNRFSGVPDRFSGSGSGTDFTLKISRVEAEDLGVYFCSQSTHVPWTFGGGTKLEIK

Variants of B1 are the subject of the data set “fluorescein”. Put plainly: Kd (Tite-Seq). The note with it: with fluorescein; format: scFv 4-4-20, heavy + light.
In data set [1] the parent is B1. Nature of the data set: yeast surface expression (ratio to wild type); higher = more expressed. The conditions noted are these: format: scFv 4-4-20, heavy + light.

Some results are limits rather than exact numbers.

For chain 1 W36L, in the data set with fluorescein, the Kd was not below 10 µM. Also, the yeast surface expression in data set [1] was 0.686.
On to chain 1 G100L S101K, for which the Kd with fluorescein was not below 10 µM. Further, in data set [1], the yeast surface expression turned out to be 0.461.
Take chain 1 S30E M34W N35M: the Kd in the data set with fluorescein was not below 10 µM. Further, the yeast surface expression in data set [1] came out at 0.493.
In the same order, the values of chain 1 G100D M105Y are not below 10 µM and 0.228.
The corresponding values for chain 1 Y102Q G109D are not below 10 µM and 0.485.
The corresponding values for chain 1 Y102S W108T are not above 0.000316 µM and 0.599.
In the case of chain 1 M34R N35M, the Kd with fluorescein is not below 10 µM. For the same variant, the yeast surface expression in data set [1] turned out to be 1.25.
As to chain 1 F29M D31N Y32A, in the data set with fluorescein, the dissociation constant Kd was 0.00606 µM. The yeast surface expression in data set [1] turned out to be 1.2.
The corresponding values for chain 1 Y103N D106N W108T are not below 10 µM and 0.736.
In the same order, the values of chain 1 D106I W108Q are not below 10 µM and 0.395.
With chain 1 T28C V37N, in the data set with fluorescein, the Kd was not below 10 µM. The yeast surface expression in data set [1] is 0.357.
With chain 1 S30I W36V V37Q, the equilibrium dissociation constant (Kd) in the data set with fluorescein is not below 10 µM. Besides, the yeast surface expression in data set [1] was found to be 0.525.
For the variant chain 1 S101G Y103R, the Kd in the data set with fluorescein was not below 10 µM. Also, in data set [1], the yeast surface expression is 0.949.
Regarding chain 1 S30Y Y32S W33T, the Kd in the data set with fluorescein was not below 10 µM. The yeast surface expression in data set [1] turned out to be 0.934.
Consider chain 1 D106E W108I, for which, in the data set with fluorescein, the Kd came out at 0.228 µM. The yeast surface expression in data set [1] amounted to 0.866.
In the same order, the values of chain 1 M105H G109T are not below 10 µM and 0.442.
The corresponding values for chain 1 M34P V37Q are 2.23 µM and 2.03.
In the same order, the values of chain 1 T28N W33Y are not below 10 µM and 1.
As for chain 1 T28N W33M, the Kd in the data set with fluorescein is not below 10 µM. Besides, in data set [1], the yeast surface expression worked out at 1.01.
The corresponding values for chain 1 F29P D31I are not below 10 µM and 0.679.
The corresponding values for chain 1 M105I W108G are not below 10 µM and 0.529.
Turning to chain 1 Y103A Y107T, the Kd with fluorescein worked out at 0.11 µM. Besides, the yeast surface expression in data set [1] amounted to 1.13.
In the same order, the values of chain 1 Y102F M105R are 0.0146 µM and 1.2.
In the same order, the values of chain 1 G100Q G109M are not below 10 µM and 0.223.
In the same order, the values of chain 1 G104L D106G are not below 10 µM and 0.169.
On to chain 1 Y103F Y107V, for which the Kd in the data set with fluorescein was 0.0146 µM. Further, in data set [1], the yeast surface expression amounted to 0.817.
The corresponding values for chain 1 G100F Y107T are not below 10 µM and 0.842.
Take chain 1 S101F G104L: in the data set with fluorescein, the dissociation constant (Kd) was not below 10 µM. Besides, in data set [1], the yeast surface expression was 0.778.
Regarding chain 1 M105R D106N, in the data set with fluorescein, the equilibrium dissociation constant (Kd) is 0.61 µM. Further, the yeast surface expression in data set [1] was 0.717.
For the variant chain 1 M34V V37K, the Kd with fluorescein is not below 10 µM. Besides, the yeast surface expression in data set [1] turned out to be 0.747.
In the same order, the values of chain 1 M34V V37D are 3.74 µM and 0.584.
In the same order, the values of chain 1 F29D W36H are not below 10 µM and 0.505.
The corresponding values for chain 1 S101L Y102A are not below 10 µM and 0.514.
chain 1 T28K M34V: the equilibrium dissociation constant (Kd) with fluorescein stood at 0.00122 µM. In addition, in data set [1], the yeast surface expression was 0.867.
The corresponding values for chain 1 Y103C G109D are not below 10 µM and 0.356.
Regarding chain 1 T28W S30G Y32K, in the data set with fluorescein, the dissociation constant Kd was found to be 1.55 µM. For the same variant, the yeast surface expression in data set [1] was found to be 0.576.
The corresponding values for chain 1 S30Y M34A are 0.0534 µM and 0.483.
In the same order, the values of chain 1 W33C V37W are not below 10 µM and 0.503.
Consider chain 1 D31C M34E, for which the dissociation constant (Kd) with fluorescein is 0.579 µM. For the same variant, in data set [1], the yeast surface expression turned out to be 0.778.
The corresponding values for chain 1 W33V N35Q are not below 10 µM and 0.772.
Regarding chain 1 Y107E G109E, in the data set with fluorescein, the equilibrium dissociation constant (Kd) was not below 10 µM. For the same variant, the yeast surface expression in data set [1] is 0.288.
The corresponding values for chain 1 S101F W108F are not below 10 µM and 0.199.
For chain 1 F29W N35G, the Kd with fluorescein is not below 10 µM. The yeast surface expression in data set [1] came out at 0.71.
On to chain 1 Y102F M105C W108T, for which the Kd in the data set with fluorescein was not below 10 µM. The yeast surface expression in data set [1] amounted to 0.419.
In the same order, the values of chain 1 W33P N35Y are 0.205 µM and 0.393.
In the case of chain 1 Y103P Y107E, the equilibrium dissociation constant (Kd) with fluorescein is not below 10 µM. Also, the yeast surface expression in data set [1] came to 0.763.
On to chain 1 S101W D106I, for which the Kd in the data set with fluorescein was not below 10 µM. In addition, the yeast surface expression in data set [1] is 0.296.
As to chain 1 S101I, the Kd in the data set with fluorescein is not below 10 µM. Moreover, the yeast surface expression in data set [1] came to 0.521.
In the case of chain 1 S101A, in the data set with fluorescein, the Kd was determined as 0.000724 µM. The yeast surface expression in data set [1] is 0.836.
In the same order, the values of chain 1 T28V F29W are 0.0154 µM and 0.491.
The corresponding values for chain 1 N35T are not below 10 µM and 0.879.
The corresponding values for chain 1 N35Q are not below 10 µM and 0.814.
Turning to chain 1 T28D S30P, in the data set with fluorescein, the Kd was 0.0015 µM. In addition, the yeast surface expression in data set [1] is 1.24.
The corresponding values for chain 1 D31A Y32K M34C are not below 10 µM and 1.1.
The corresponding values for chain 1 S30F N35T are not below 10 µM and 0.588.
In the same order, the values of chain 1 F29Q W36H are not below 10 µM and 0.405.
With chain 1 F29L D31S, the dissociation constant (Kd) in the data set with fluorescein came to 0.972 µM. The yeast surface expression in data set [1] was 0.743.
On to chain 1 M105V G109Y, for which the Kd with fluorescein was not below 10 µM. In addition, the yeast surface expression in data set [1] came to 0.227.

Usually Kd stands for the free concentration of one partner at which half of the binding sites on the other are occupied at equilibrium, for simple one-to-one binding.
